In paper PMC12439145, “Aptamer-based drug delivery for targeted therapy of imatinib-resistant gastrointestinal stromal tumor”:

B1: KIT-w (ssDNA)
DNA: GAGGCATACCAGCTTATTCAAGGGGCCGGGGCAAGGGGGGGGTACCGTGGTAGGACATAGTAAGTGCAATCTGCGAA

Experiments:
[1] = target: T1, KIT (recombinant, YEASEN 93764ES80) (UniProt P10721 26-524); assay: SPR; KIT immobilized on CM5 chip; SPR at 25 C, His-KIT on CM5 chip, 50 mM NaOH regeneration; flow cytometry with 250 nM Cy5-aptamer in binding buffer with 1 mg/ml BSA and 1 mM yeast tRNA; salt and pH not given in material; conditions: protein: commercial; tags: His-tag; label: Cy5 in flow cytometry; predicted stem-loop
T1 sequence (P10721 26-524): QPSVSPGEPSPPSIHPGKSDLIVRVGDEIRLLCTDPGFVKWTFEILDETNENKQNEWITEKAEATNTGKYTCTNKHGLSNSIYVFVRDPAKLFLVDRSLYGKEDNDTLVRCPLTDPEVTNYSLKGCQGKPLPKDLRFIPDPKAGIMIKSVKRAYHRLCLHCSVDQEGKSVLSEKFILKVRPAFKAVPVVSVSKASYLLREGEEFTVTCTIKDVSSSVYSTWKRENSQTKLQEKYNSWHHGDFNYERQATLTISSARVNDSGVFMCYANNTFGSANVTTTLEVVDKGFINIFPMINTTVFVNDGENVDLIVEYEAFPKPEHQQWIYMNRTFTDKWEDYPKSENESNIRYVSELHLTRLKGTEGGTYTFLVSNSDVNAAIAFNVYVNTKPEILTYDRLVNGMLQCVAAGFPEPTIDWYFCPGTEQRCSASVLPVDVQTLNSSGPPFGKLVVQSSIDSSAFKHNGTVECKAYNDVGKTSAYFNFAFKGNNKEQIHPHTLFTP

[2] = target: T1, KIT (recombinant, YEASEN 93764ES80); assay: flow cytometry; KIT coated on aldehyde/sulfate latex beads; SPR at 25 C, His-KIT on CM5 chip, 50 mM NaOH regeneration; flow cytometry with 250 nM Cy5-aptamer in binding buffer with 1 mg/ml BSA and 1 mM yeast tRNA; salt and pH not given in material; conditions: protein: commercial; tags: His-tag; label: Cy5 in flow cytometry; predicted stem-loop

Row | Binder | Kd [1] [nM] | Kd [2] [nM]
1 | ATTCAAGGGGCCGGGGCAAGGGGGGGGTACCGTGGTAGGACATAGT (ssDNA) [KIT-d] | 71.1 | 80.2
2 | B1 | 84 | 106
